Source: PMC11080051, “Melanoma-Derived DNA Polymerase Theta Variants Exhibit Altered DNA Polymerase Activity”
Residue numbers refer to the chain shown, from its start.

What was measured:
Experiment in all cases: EMSA; 6 mM MgCl2; EMSA: 10 mM Tris-HCl pH 7.5, 6 mM MgCl2, 100 mM NaCl, 10% glycerol, 0.1% NP-40; 10 nM DNA, 0-1000 nM protein, 1 h at room temperature; 6% native PAGE
Conditions in all cases: protein: recombinant; tags: 6xHis-SUMO, cleaved off; label: 5'-6-FAM on primer; 22 bp; 5' overhang 18 nt on template; 5' overhang 3 nt (TTT) on primer
[1] = target: T1, DNA polymerase theta polymerase domain (PolQM1), WT (Homo sapiens, UniProt O75417 1792-2590)
T1 sequence: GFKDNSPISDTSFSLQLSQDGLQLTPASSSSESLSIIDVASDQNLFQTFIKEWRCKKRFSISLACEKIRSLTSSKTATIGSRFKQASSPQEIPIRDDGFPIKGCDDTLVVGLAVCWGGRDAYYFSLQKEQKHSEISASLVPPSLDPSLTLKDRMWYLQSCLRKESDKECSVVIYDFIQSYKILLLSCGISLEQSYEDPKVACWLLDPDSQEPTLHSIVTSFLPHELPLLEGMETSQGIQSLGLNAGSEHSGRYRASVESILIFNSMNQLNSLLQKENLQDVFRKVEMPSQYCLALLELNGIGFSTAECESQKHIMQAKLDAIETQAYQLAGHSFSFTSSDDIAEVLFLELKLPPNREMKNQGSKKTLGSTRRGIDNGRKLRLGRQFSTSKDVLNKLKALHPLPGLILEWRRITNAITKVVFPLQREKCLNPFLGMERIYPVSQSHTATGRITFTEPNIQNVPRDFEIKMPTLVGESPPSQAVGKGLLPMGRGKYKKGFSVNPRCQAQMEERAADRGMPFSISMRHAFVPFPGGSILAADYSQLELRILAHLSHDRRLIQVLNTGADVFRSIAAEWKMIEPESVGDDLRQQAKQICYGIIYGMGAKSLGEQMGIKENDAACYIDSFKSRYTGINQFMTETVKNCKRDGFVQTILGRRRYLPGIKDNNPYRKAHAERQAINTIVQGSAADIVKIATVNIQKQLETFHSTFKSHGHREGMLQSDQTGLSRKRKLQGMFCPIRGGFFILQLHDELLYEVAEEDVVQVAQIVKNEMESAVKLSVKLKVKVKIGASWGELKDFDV

[2] = target: T2, DNA polymerase theta polymerase domain (PolQM1), E2406K (Homo sapiens, UniProt O75417 1792-2590, E2406K)
T2 sequence: T1 sequence with E615K

[3] = target: T3, DNA polymerase theta polymerase domain (PolQM1), T2161I (Homo sapiens, UniProt O75417 1792-2590, T2161I)
T3 sequence: T1 sequence with T370I

[4] = target: T4, DNA polymerase theta polymerase domain (PolQM1), L2538R (Homo sapiens, UniProt O75417 1792-2590, L2538R)
T4 sequence: T1 sequence with L747R

B1: 25/40 primer-template duplex (CG template) (dsDNA)
DNA 1: TTTGCCTTGACCATGTAACAGAGAG
DNA 2: TCTCTTCTCTCACTCACGCTCTCTGTTACATGGTCAAGGC
B1 showed a Kd [1] of 0.018 ± 0.003 µM, a Kd [2] of 0.014 ± 0.003 µM and a Kd [3] of 0.013 ± 0.003 µM. It also gave a Kd [4] of 0.018 ± 0.004 µM.
